Assay results: publication PMC8298264, “Function of cofactor Akirin2 in the regulation of gene expression in model human neutrophil-like HL60 cells” (Bioscience Reports, 2021)

What was measured:
human HL60 cells = experiment: SWATH-MS proteomics, differential protein representation, akirin2 KO vs WT HL60 cells; format: cell-based; details: sheet "Under-represented in KO"
In short: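 Proteins from WT and akirin2 KO HL60 cells (n=3 biological replicates) were FASP trypsin-digested and analyzed by SWATH-MS DIA with variable windows against an IDA-derived spectral library. Identifications at 1% global FDR; quantities normalized to total area sums of all detected proteins.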

AKR2 = tested on: AKR2; design: key: A: Very high confidence in the interaction; B: High confidence in the interaction; D: Moderate confidence in the interaction; details: AKR2-interacting proteins (IPs), physical interactome; ref https://doi.org/10.3390/vaccines8010077; cited from earlier work
From the text: Supplement BSR-2021-1120_supp1.zip/BSR-2021-1120_suppST4.xlsx, sheet "BPs related to AKR2-IPs" | column: Predicted Biological Score (PBS)

B1: sp¦O95202¦LETM1_HUMAN (protein, UniProt O95202 116-739, looked up)
Mitochondrial proton/calcium …: DDSVVEKSLKSLKDKNKKLEEGGPVYSPPAEVVVKKSLGQRVLDELKHYYHGFRLLWIDTKIAARMLWRILNGHSLTRRERRQFLRICADLFRLVPFLVFVVVPFMEFLLPVAVKLFPNMLPSTFETQSLKEERLKKELRVKLELAKFLQDTIEEMALKNKAAKGSATKDFSVFFQKIRETGERPSNEEIMRFSKLFEDELTLDNLTRPQLVALCKLLELQSIGTNNFLRFQLTMRLRSIKADDKLIAEEGVDSLNVKELQAACRARGMRALGVTEDRLRGQLKQWLDLHLHQEIPTSLLILSRAMYLPDTLSPADQLKSTLQTLPEIVAKEAQVKVAEVEGEQVDNKAKLEATLQEEAAIQQEHREKELQKRSEVAKDFEPERVVAAPQRPGTEPQPEMPDTVLQSETLKDTAPVLEGLKEEEITKEEIDILSDACSKLQEQKKSLTKEKEELELLKEDVQDYSEDLQEIKKELSKTGEEKYVEESKASKRLTKRVQQMIGQIDGLISQLEMDQQAGKLAPANGMPTGENVISVAELINAMKQVKHIPESKLTSLAAALDENKDGKVNIDDLVKVIELVDKEDVHISTSQVAEIVATLEKEEKVEEKEKAKEKAEKEVAEVKS
- Fold Change (human HL60 cells; KO vs WT HL60 cells): 0.5097
- Log (Fold Change) (human HL60 cells; KO vs WT HL60 cells): -0.2927

B2: sp¦Q9Y617¦SERC_HUMAN (protein, UniProt Q9Y617 1-370, looked up)
Phosphoserine aminotransferase: MDAPRQVVNFGPGPAKLPHSVLLEIQKELLDYKGVGISVLEMSHRSSDFAKIINNTENLVRELLAVPDNYKVIFLQGGGCGQFSAVPLNLIGLKAGRCADYVVTGAWSAKAAEEAKKFGTINIVHPKLGSYTKIPDPSTWNLNPDASYVYYCANETVHGVEFDFIPDVKGAVLVCDMSSNFLSKPVDVSKFGVIFAGAQKNVGSAGVTVVIVRDDLLGFALRECPSVLEYKVQAGNSSLYNTPPCFSIYVMGLVLEWIKNNGGAAAMEKLSSIKSQTIYEIIDNSQGFYVCPVEPQNRSKMNIPFRIGNAKGDDALEKRFLDKALELNMLSLKGHRSVGGIRASLYNAVTIEDVQKLAAFMKKFLEMHQL
- Fold Change (human HL60 cells; KO vs WT HL60 cells): 0.4967
- Log (Fold Change) (human HL60 cells; KO vs WT HL60 cells): -0.3039

B3: RNF123 (protein, UniProt Q5XPI4 2-1314, looked up)
E3 ubiquitin-protein ligase …: ASKGAGMSFSRKSYRLTSDAEKSRVTGIVQEKLLNDYLNRIFSSSEHAPPAATSRKPLNFQNLPEHLDQLLQVDNEEEESQGQVEGRLGPSTVVLDHTGGFEGLLLVDDDLLGVIGHSNFGTIRSTTCVYKGKWLYEVLISSQGLMQIGWCTISCRFNQEEGVGDTHNSYAYDGNRVRKWNVTTTNYGKAWAAGDIVSCLIDLDDGTLSFCLNGVSLGTAFENLSRGLGMAYFPAISLSFKESVAFNFGSRPLRYPVAGYRPLQDPPSADLVRAQRLLGCFRAVLSVELDPVEGRLLDKESSKWRLRGQPTVLLTLAHIFHHFAPLLRKVYLVEAVLMSFLLGIVEKGTPTQAQSVVHQVLDLLWLFMEDYEVQDCLKQLMMSLLRLYRFSPIVPDLGLQIHYLRLTIAILRHEKSRKFLLSNVLFDVLRSVVFFYIKSPLRVEEAGLQELIPTTWWPHCSSREGKESTEMKEETAEERLRRRAYERGCQRLRKRIEVVEELQVQILKLLLDNKDDNGGEASRYIFLTKFRKFLQENASGRGNMPMLCPPEYMVCFLHRLISALRYYWDEYKASNPHASFSEEAYIPPQVFYNGKVDYFDLQRLGGLLSHLRKTLKDDLASKANIVIDPLELQSTAMDDLDEDEEPAPAMAQRPMQALAVGGPLPLPRPGWLSSPTLGRANRFLSTAAVSLMTPRRPLSTSEKVKVRTLSVEQRTREDIEGSHWNEGLLLGRPPEEPEQPLTENSLLEVLDGAVMMYNLSVHQQLGKMVGVSDDVNEYAMALRDTEDKLRRCPKRRKDILAELTKSQKVFSEKLDHLSRRLAWVHATVYSQEKMLDIYWLLRVCLRTIEHGDRTGSLFAFMPEFYLSVAINSYSALKNYFGPVHSMEELPGYEETLTRLAAILAKHFADARIVGTDIRDSLMQALASYVCYPHSLRAVERIPEEQRIAMVRNLLAPYEQRPWAQTNWILVRLWRGCGFGYRYTRLPHLLKTKLEDANLPSLQKPCPSTLLQQHMADLLQQGPDVAPSFLNSVLNQLNWAFSEFIGMIQEIQQAAERLERNFVDSRQLKVCATCFDLSVSLLRVLEMTITLVPEIFLDWTRPTSEMLLRRLAQLLNQVLNRVTAERNLFDRVVTLRLPGLESVDHYPILVAVTGILVQLLVRGPASEREQATSVLLADPCFQLRSICYLLGQPEPPAPGTALPAPDRKRFSLQSYADYISADELAQVEQMLAHLTSASAQAAAASLPTSEEDLCPICYAHPISAVFQPCGHKSCKACINQHLMNNKDCFFCKTTIVSVEDWEKGANTSTTSSAA
- Predicted Biological Score (PBS) (AKR2): A

B4: RNF181 (protein, UniProt Q9P0P0 1-153, looked up)
E3 ubiquitin-protein ligase …: MASYFDEHDCEPSDPEQETRTNMLLELARSLFNRMDFEDLGLVVDWDHHLPPPAAKTVVENLPRTVIRGSQAELKCPVCLLEFEEEETAIEMPCHHLFHSSCILPWLSKTNSCPLCRYELPTDDDTYEEHRRDKARKQQQQHRLENLHGAMYT
- Predicted Biological Score (PBS) (AKR2): A

B5: sp¦Q7Z3D6¦GLUCM_HUMAN (protein, UniProt Q7Z3D6 29-616, looked up)
D-glutamate cyclase, …: TSSMAGELRPASLVVLPRSLAPAFERFCQVNTGPLPLLGQSEPEKWMLPPQGAISETRMGHPQFWKYEFGACTGSLASLEQYSEQLKDMVAFFLGCSFSLEEALEKAGLPRRDPAGHSQTTVPCVTHAGFCCPLVVTMRPIPKDKLEGLVRACCSLGGEQGQPVHMGDPELLGIKELSKPAYGDAMVCPPGEVPVFWPSPLTSLGAVSSCETPLAFASIPGCTVMTDLKDAKAPPGCLTPERIPEVHHISQDPLHYSIASVSASQKIRELESMIGIDPGNRGIGHLLCKDELLKASLSLSHARSVLITTGFPTHFNHEPPEETDGPPGAVALVAFLQALEKEVAIIVDQRAWNLHQKIVEDAVEQGVLKTQIPILTYQGGSVEAAQAFLCKNGDPQTPRFDHLVAIERAGRAADGNYYNARKMNIKHLVDPIDDLFLAAKKIPGISSTGVGDGGNELGMGKVKEAVRRHIRHGDVIACDVEADFAVIAGVSNWGGYALACALYILYSCAVHSQYLRKAVGPSRAPGDQAWTQALPSVIKEEKMLGILVQHKVRSGVSGIVGMEVDGLPFHNTHAEMIQKLVDVTTAQV
- Fold Change (human HL60 cells; KO vs WT HL60 cells): 0.5156
- Log (Fold Change) (human HL60 cells; KO vs WT HL60 cells): -0.2877

B6: sp¦Q86UP2¦KTN1_HUMAN (protein, UniProt Q86UP2 1-1357, looked up)
Kinectin: MEFYESAYFIVLIPSIVITVIFLFFWLFMKETLYDEVLAKQKREQKLIPTKTDKKKAEKKKNKKKEIQNGNLHESDSESVPRDFKLSDALAVEDDQVAPVPLNVVETSSSVRERKKKEKKQKPVLEEQVIKESDASKIPGKKVEPVPVTKQPTPPSEAAASKKKPGQKKSKNGSDDQDKKVETLMVPSKRQEALPLHQETKQESGSGKKKASSKKQKTENVFVDEPLIHATTYIPLMDNADSSPVVDKREVIDLLKPDQVEGIQKSGTKKLKTETDKENAEVKFKDFLLSLKTMMFSEDEALCVVDLLKEKSGVIQDALKKSSKGELTTLIHQLQEKDKLLAAVKEDAAATKDRCKQLTQEMMTEKERSNVVITRMKDRIGTLEKEHNVFQNKIHVSYQETQQMQMKFQQVREQMEAEIAHLKQENGILRDAVSNTTNQLESKQSAELNKLRQDYARLVNELTEKTGKLQQEEVQKKNAEQAATQLKVQLQEAERRWEEVQSYIRKRTAEHEAAQQDLQSKFVAKENEVQSLHSKLTDTLVSKQQLEQRLMQLMESEQKRVNKEESLQMQVQDILEQNEALKAQIQQFHSQIAAQTSASVLAEELHKVIAEKDKQIKQTEDSLASERDRLTSKEEELKDIQNMNFLLKAEVQKLQALANEQAAAAHELEKMQQSVYVKDDKIRLLEEQLQHEISNKMEEFKILNDQNKALKSEVQKLQTLVSEQPNKDVVEQMEKCIQEKDEKLKTVEELLETGLIQVATKEEELNAIRTENSSLTKEVQDLKAKQNDQVSFASLVEELKKVIHEKDGKIKSVEELLEAELLKVANKEKTVQDLKQEIKALKEEIGNVQLEKAQQLSITSKVQELQNLLKGKEEQMNTMKAVLEEKEKDLANTGKWLQDLQEENESLKAHVQEVAQHNLKEASSASQFEELEIVLKEKENELKRLEAMLKERESDLSSKTQLLQDVQDENKLFKSQIEQLKQQNYQQASSFPPHEELLKVISEREKEISGLWNELDSLKDAVEHQRKKNNDLREKNWEAMEALASTEKMLQDKVNKTSKERQQQVEAVELEAKEVLKKLFPKVSVPSNLSYGEWLHGFEKKAKECMAGTSGSEEVKVLEHKLKEADEMHTLLQLECEKYKSVLAETEGILQKLQRSVEQEENKWKVKVDESHKTIKQMQSSFTSSEQELERLRSENKDIENLRREREHLEMELEKAEMERSTYVTEVRELKDLLTELQKKLDDSYSEAVRQNEELNLLKAQLNETLTKLRTEQNERQKVAGDLHKAQQSLELIQSKIVKAAGDTTVIENSDVSPETESSEKETMSVSLNQTVTQLQQLLQAVNQQLTKEKEHYQVLE
- Fold Change (human HL60 cells; akirin2 KO vs WT HL60 cells): 0.24
- Log (Fold Change) (human HL60 cells; akirin2 KO vs WT HL60 cells): -0.6198

B7: sp¦P36776¦LONM_HUMAN (protein, UniProt P36776 68-959, looked up)
Lon protease homolog, …: FWEASSRGGGAFSGGEDASEGGAEEGAGGAGGSAGAGEGPVITALTPMTIPDVFPHLPLIAITRNPVFPRFIKIIEVKNKKLVELLRRKVRLAQPYVGVFLKRDDSNESDVVESLDEIYHTGTFAQIHEMQDLGDKLRMIVMGHRRVHISRQLEVEPEEPEAENKHKPRRKSKRGKKEAEDELSARHPAELAMEPTPELPAEVLMVEVENVVHEDFQVTEEVKALTAEIVKTIRDIIALNPLYRESVLQMMQAGQRVVDNPIYLSDMGAALTGAESHELQDVLEETNIPKRLYKALSLLKKEFELSKLQQRLGREVEEKIKQTHRKYLLQEQLKIIKKELGLEKDDKDAIEEKFRERLKELVVPKHVMDVVDEELSKLGLLDNHSSEFNVTRNYLDWLTSIPWGKYSNENLDLARAQAVLEEDHYGMEDVKKRILEFIAVSQLRGSTQGKILCFYGPPGVGKTSIARSIARALNREYFRFSVGGMTDVAEIKGHRRTYVGAMPGKIIQCLKKTKTENPLILIDEVDKIGRGYQGDPSSALLELLDPEQNANFLDHYLDVPVDLSKVLFICTANVTDTIPEPLRDRMEMINVSGYVAQEKLAIAERYLVPQARALCGLDESKAKLSSDVLTLLIKQYCRESGVRNLQKQVEKVLRKSAYKIVSGEAESVEVTPENLQDFVGKPVFTVERMYDVTPPGVVMGLAWTAMGGSTLFVETSLRRPQDKDAKGDKDGSLEVTGQLGEVMKESARIAYTFARAFLMQHAPANDYLVTSHIHLHVPEGATPKDGPSAGCTIVTALLSLAMGRPVRQNLAMTGEVSLTGKILPVGGIKEKTIAAKRAGVTCIVLPAENKKDFYDLAAFITEGLEVHFVEHYREIFDIAFPDEQAEALAVER
- Fold Change (human HL60 cells; KO vs WT HL60 cells): 0.5023
- Log (Fold Change) (human HL60 cells; KO vs WT HL60 cells): -0.2991
